Results from PMC3760798.

Experiments:
p300 = p300 (UniProt B2RWS6); test: anti-p300 co-IP from nuclear extract, time course; settings: reference: wild type; sites S467
[1] = molecular target: CBP (CREB-binding protein) (UniProt P45481); test: anti-CBP co-IP from nuclear extract, time course; settings: reference: wild type; sites S467
[2] = molecular target: GB1-tagged RelA-TA2 fragments (all ITC titrations); test: ITC; all ITC titrations taken together (50 mM or 150 mM NaCl); 25°C; 20 mM Tris pH 8.0, 1 mM DTT; single-binding site model

Sequence of TAZ1 domain of mouse CBP (residues 340–439) (P45481 340-439): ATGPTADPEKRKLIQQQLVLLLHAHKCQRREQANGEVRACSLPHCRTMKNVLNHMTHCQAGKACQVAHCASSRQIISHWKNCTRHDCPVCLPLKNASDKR

binding against the reference (p300) | binding against the reference [1] | stoichiometry N [2] | Substance
weaker | weaker | – | RelA (p65) (from UniProt Q04207) S467A
– | – | 0.9 to 1.2 | TAZ1 domain of mouse CBP (residues 340–439) (from UniProt P45481 340-439) (domain or fragment)
